Results: patent publication US20110142830A1

Target: sSortilin, Q99523
Test: SPR
Settings: modification not given

Chain of sSortilin, Q99523 (Q99523 78-755): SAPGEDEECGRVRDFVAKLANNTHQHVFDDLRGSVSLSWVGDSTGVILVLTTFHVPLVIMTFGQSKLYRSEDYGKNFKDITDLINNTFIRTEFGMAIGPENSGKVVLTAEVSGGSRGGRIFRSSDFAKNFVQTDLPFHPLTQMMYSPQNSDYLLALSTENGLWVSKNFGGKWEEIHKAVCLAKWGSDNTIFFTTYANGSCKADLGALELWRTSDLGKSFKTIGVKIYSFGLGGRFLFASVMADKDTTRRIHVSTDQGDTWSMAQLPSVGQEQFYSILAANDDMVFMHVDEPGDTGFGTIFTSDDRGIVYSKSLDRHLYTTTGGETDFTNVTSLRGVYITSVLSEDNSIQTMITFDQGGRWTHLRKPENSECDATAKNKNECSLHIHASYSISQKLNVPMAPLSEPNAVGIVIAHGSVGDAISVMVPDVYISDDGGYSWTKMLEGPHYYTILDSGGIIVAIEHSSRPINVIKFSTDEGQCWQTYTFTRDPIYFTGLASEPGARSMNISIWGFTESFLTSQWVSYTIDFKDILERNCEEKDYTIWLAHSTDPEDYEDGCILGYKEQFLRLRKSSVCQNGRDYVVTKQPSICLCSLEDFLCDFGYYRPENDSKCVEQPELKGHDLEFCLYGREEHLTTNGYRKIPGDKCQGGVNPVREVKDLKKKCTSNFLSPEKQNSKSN

EC50: 460 nM
Binder: RRPYIL [NT8-13]
